Data taken from IntAct's records for PubMed 30260988.

B1: CXXC motif containing zinc binding protein (Homo sapiens), Q9NWV4 (parent)
chain: MGKIALQLKATLENITNLRPVGEDFRWYLKMKCGNCGEISDKWQYIRLMDSVALKGGRGSASMVQKCKLCARENSIEILSSTIKPYNAEDNENFKTIVEFECRGLEPVDFQPQAGFAAEGVESGTAFSDINLQEKDWTDYDEKAQESVGIYEVTHQFVKC
partner: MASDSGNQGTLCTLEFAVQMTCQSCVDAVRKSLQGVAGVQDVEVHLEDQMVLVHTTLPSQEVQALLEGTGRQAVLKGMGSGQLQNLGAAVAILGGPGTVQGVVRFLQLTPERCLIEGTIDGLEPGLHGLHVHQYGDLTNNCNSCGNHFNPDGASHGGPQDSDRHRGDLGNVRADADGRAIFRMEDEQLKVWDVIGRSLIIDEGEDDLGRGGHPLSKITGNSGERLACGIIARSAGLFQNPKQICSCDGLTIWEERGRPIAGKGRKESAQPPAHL

Key:
ccs_human CCS, O14618 [1] = variants of: B1; details: with ccs_human CCS
ccs_human CCS, O14618 [2] = variants of: B1; details: with ccs_human CCS; remark: listed apart in the source

Variant | effect of a mutation on the interaction (ccs_human CCS, O14618 [1]) | effect of a mutation on the interaction (ccs_human CCS, O14618 [2])
MGKIALQLKATLENITNLRPVGEDFRWYLKMKCGNCGEISDKWQYIRLMDSVALKGGRGSASMVQKAKLAARENSIEILSSTIKPYNAEDNENFKTIVEFECRGLEPVDFQPQAGFAAEGVESGTAFSDINLQEKDWTDYDEKAQESVGIYEVTHQFVKC [C67A;C70A] | disrupting interaction strength | causing an interaction
MGKIALQLKATLENITNLRPVGEDFRWYLKMKAGNAGEISDKWQYIRLMDSVALKGGRGSASMVQKCKLCARENSIEILSSTIKPYNAEDNENFKTIVEFECRGLEPVDFQPQAGFAAEGVESGTAFSDINLQEKDWTDYDEKAQESVGIYEVTHQFVKC [C33A;C36A] | with no effect | causing an interaction
